For one substance, amidolytic activity of the SCG-PT complex on the chromogenic thrombin substrate S-2238, specific activity relative to human thrombin (9.1 IU/nmol), clotting activity of the SCG-PT complex in human plasma, specific activity relative to human thrombin and clotting activity of the SCG-PT complex on purified human fibrinogen (3.0 g/L), specific activity relative to human thrombin results are on record in article PMC6933771.

The target of this test is human prothrombin (human).

In the case of staphylocoagulase (natural protein), the amidolytic activity of the SCG-PT complex on the chromogenic thrombin substrate S-2238, specific activity relative to human thrombin (9.1 IU/nmol) is 5.5 IU/nmol; the clotting activity of the SCG-PT complex in human plasma, specific activity relative to human thrombin is 4.2 IU/nmol; the clotting activity of the SCG-PT complex on purified human fibrinogen (3.0 g/L), specific activity relative to human thrombin was determined as 3.6 IU/nmol.
